# In paper PMC10632424, “Low-noise fluorescent detection of cardiac troponin I in human serum based on surface acoustic wave separation”:
# B1: cTnI aptamer probe hybridized with AuNP-ssDNA (mixed)
# DNA 1: CGTGCAGTACGCCAACCTTTCTCATGCGCTGCCCCTCTTA
# DNA 2: GAGAAAGGTTGGCGTACT
# modifications: 5'-biotin and 3'-Texas Red on S1; 5' SH-C6 on S2 (gold nanoparticle)
# Assays:
# myoglobin (MYO) = target: T1, myoglobin (MYO) (UniProt P02144 2-154); test: fluorescence recovery by displacement of AuNP-ssDNA (bead-immobilized probe); 20 ng/mL; negligible response; PBS pH 7.2, 30 min shaking, temperature not stated; probe folded in 1 mM MgCl2, 1x PBS pH 7.2; serum diluted 10x in PBS; settings: protein: commercial; label: Texas Red; gold nanoparticle quencher; biotin on streptavidin PS beads; S2 pairs with S1[6-23]; S1 overhangs 5' 5 nt and 3' 17 nt
# T1 sequence: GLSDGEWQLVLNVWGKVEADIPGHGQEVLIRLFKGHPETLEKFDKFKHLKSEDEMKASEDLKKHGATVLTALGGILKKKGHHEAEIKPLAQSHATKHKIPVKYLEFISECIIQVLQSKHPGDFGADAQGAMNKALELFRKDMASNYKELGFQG
# C-reactive protein (CRP) = target: T2, C-reactive protein (CRP) (UniProt P02741 19-224); test: as above; settings: protein: commercial; chain copies: 5; label: Texas Red; gold nanoparticle quencher; biotin on streptavidin PS beads; S2 pairs with S1[6-23]; S1 overhangs 5' 5 nt and 3' 17 nt
# T2 sequence: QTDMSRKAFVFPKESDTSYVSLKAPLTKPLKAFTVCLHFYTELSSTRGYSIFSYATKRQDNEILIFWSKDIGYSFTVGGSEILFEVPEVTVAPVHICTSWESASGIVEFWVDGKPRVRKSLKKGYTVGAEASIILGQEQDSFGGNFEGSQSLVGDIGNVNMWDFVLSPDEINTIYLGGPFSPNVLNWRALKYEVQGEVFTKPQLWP
# [1] = target: cardiac troponin I (cTnI) (human, UniProt P19429 2-210); test: fluorescence recovery by displacement of AuNP-ssDNA (bead-immobilized probe); PBS, cTnI 0.2-60 ng/mL; LOD 44 pg/mL; PBS pH 7.2, 30 min shaking, temperature not stated; probe folded in 1 mM MgCl2, 1x PBS pH 7.2; serum diluted 10x in PBS; settings: protein: commercial; label: Texas Red; gold nanoparticle quencher; biotin on streptavidin PS beads; S2 pairs with S1[6-23]; S1 overhangs 5' 5 nt and 3' 17 nt
# Chain of cardiac troponin I (cTnI) (P19429 2-210): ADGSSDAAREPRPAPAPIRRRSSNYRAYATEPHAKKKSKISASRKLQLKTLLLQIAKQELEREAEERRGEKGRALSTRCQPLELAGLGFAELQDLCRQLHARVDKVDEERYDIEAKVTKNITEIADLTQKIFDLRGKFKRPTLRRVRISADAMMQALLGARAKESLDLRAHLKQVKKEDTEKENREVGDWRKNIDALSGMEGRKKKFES
binder,measurement,setting,value
B1,binding result,myoglobin (MYO),no binding
same,binding result,C-reactive protein (CRP),no binding
same,binding result,[1],binds
